# Measurements as given in patent publication US20260242497A1 (VIAL HEALTH TECHNOLOGY, published 2026).
# Changes are numbered by the printed parent chain. Names may count otherwise. “And” between values parts separate entries of the source, which are not always exact repeats. Equal entries are not always repeated.
# T1: TL1A (antigen of Examples 1 and 2, species not stated) (UniProt O95150 57-251, limits assumed)
# T1 construct: also called recombinant purified antigen; TNFSF15
# T1 sequence (looked up): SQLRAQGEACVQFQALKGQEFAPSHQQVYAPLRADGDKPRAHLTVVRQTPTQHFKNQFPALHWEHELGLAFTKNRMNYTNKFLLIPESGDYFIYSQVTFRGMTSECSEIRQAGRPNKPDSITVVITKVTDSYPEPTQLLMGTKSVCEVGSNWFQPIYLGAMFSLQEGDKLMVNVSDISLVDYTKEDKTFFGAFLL
# T2: biotinylated recombinant human TL1A (human, UniProt O95150 57-251, limits assumed, biotinylated (sites not given))
# T2 sequence: T1 sequence (looked up)
# B1: AB_TL1A_02_004 (antibody, human IgG1, kappa)
# heavy: QVQLVQSGAEVKKPGASVKVSCKASGYDFTYYGISWVRQAPGQGLEWMGWISPYNGNTHYAQKLQGRVTMTTDTSTRTAYMELRSLRSDDTAVYYCARENYYGSGAYRGGMDVWGQGTTVTVSSASTKGPSVFPLAPSSKSTSGGTAALGCLVKDYFPEPVTVSWNSGALTSGVHTFPAVLQSSGLYSLSSVVTVPSSSLGTQTYICNVNHKPSNTKVDKKVEPKSCDKTHTCPPCPAPEAAGAPSVFLFPPKPKDTLMISRTPEVTCVVVDVSHEDPEVKFNWYVDGVEVHNAKTKPREEQYNSTYRVVSVLTVLHQDWLNGKEYKCKVSNKALPAPIEKTISKAKGQPREPQVYTLPPSREEMTKNQVSLTCLVKGFYPSDIAVEWESNGQPENNYKTTPPVLDSDGSFFLYSKLTVDKSRWQQGNVFSCSVMHEALHNHYTQKSLSLSPG
# light: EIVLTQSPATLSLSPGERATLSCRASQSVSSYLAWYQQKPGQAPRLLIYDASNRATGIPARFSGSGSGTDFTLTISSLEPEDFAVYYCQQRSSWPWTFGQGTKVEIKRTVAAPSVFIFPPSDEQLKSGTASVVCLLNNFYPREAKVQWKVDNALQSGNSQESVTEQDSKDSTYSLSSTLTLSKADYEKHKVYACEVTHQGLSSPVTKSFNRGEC
# B2: AB_IL15_AI_02_077_HL9 (antibody, human IgG1, kappa, L234A L235A)
# heavy: EVQLVESGGGLVQPGGSLRLSCAASEFTFSNYAMSWVRQAPGKGLEWVATISRGGDYHYYPDSVKGRFTISRDNSKNTLYLQMNSLRAEDTAVYYCARRVSMITGGWAHDYWGQGTLVTVSSASTKGPSVFPLAPSSKSTSGGTAALGCLVKDYFPEPVTVSWNSGALTSGVHTFPAVLQSSGLYSLSSVVTVPSSSLGTQTYICNVNHKPSNTKVDKRVEPKSCDKTHTCPPCPAPEAAGGPSVFLFPPKPKDTLMISRTPEVTCVVVDVSHEDPEVKFNWYVDGVEVHNAKTKPREEQYNSTYRVVSVLTVLHRDWLNGKEYKCKVSNKALPAPIEKTISKAKGQPREPQVYTLPPSREEMTKNQVSLTCLVKGFYPSDIAVEWESNGQPENNYKTTPPVLDSDGSFFLYSKLTVDKSRWQQGNVFSCSVLHEALKFHYTQKSLSLSPGK
# light: DVVMTQSPLSLPVTLGQPASISCRSSQSIVDITGNTYLEWYQQRPGQSPRLLIYKVFNRFSGVPDRFSGSGSGTDFTLKISRVEAEDVGVYYCFQDSFVPYTFGQGTKLEIKRTVAAPSVFIFPPSDEQLKSGTASVVCLLNNFYPREAKVQWKVDNALQSGNSQESVTEQDSKDSTYSLSSTLTLSKADYEKHKVYACEVTHQGLSSPVTKSFNRGEC
# notes: Anti-IL15 antibody with Q311R, M428L, H433K, N434F
# B3: AB_IL1b_02_003_HL9 (antibody, human IgG4 S228P, kappa, F234A L235A)
# heavy: EVQLVESGGGLVQPGGSLRLSCAASGFTFSDHYMSWIRQAPGKGLEWVSYISSSGSTIYYADSVKGRFTISRDNAKNSLYLQMNSLRAEDTAVYYCAREYDSSGYYYVGVDFWGQGTLVTVSSASTKGPSVFPLAPCSRSTSESTAALGCLVKDYFPEPVTVSWNSGALTSGVHTFPAVLQSSGLYSLSSVVTVPSSSLGTKTYTCNVDHKPSNTKVDKRVESKYGPPCPPCPAPEAAGGPSVFLFPPKPKDTLMISRTPEVTCVVVDVSQEDPEVQFNWYVDGVEVHNAKTKPREEQFNSTYRVVSVLTVLHRDWLNGKEYKCKVSNKGLPSSIEKTISKAKGQPREPQVYTLPPSQEEMTKNQVSLTCLVKGFYPSDIAVEWESNGQPENNYKTTPPVLDSDGSFFLYSRLTVDKSRWQEGNVFSCSVLHEALKFHYTQKSLSLSLG
# light: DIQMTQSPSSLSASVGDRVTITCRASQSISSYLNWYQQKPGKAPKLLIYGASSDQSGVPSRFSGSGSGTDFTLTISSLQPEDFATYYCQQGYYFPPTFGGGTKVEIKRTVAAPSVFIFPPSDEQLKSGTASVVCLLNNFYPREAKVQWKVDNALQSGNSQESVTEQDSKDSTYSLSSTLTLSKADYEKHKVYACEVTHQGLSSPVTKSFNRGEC
# notes: Anti-IL1β antibody with Q311R, M428L, H433K, N434F
# B4: AB_IL13_02_001_HL9 (antibody, human IgG1, kappa, L234A L235A)
# heavy: EVQLQESGPGLVKPSETLSLTCTVSGFSLNAYSVNWIRQPPGKGLEWLGMIWGDGKIVYNSALKSRLTISKDSSKNQVSLKLSSVTAADTAVYYCAGDGYYPYFMDNWGQGTTVTVSSASTKGPSVFPLAPSSKSTSGGTAALGCLVKDYFPEPVTVSWNSGALTSGVHTFPAVLQSSGLYSLSSVVTVPSSSLGTQTYICNVNHKPSNTKVDKKVEPKSCDKTHTCPPCPAPEAAGGPSVFLFPPKPKDTLMISRTPEVTCVVVDVSHEDPEVKFNWYVDGVEVHNAKTKPREEQYNSTYRVVSVLTVLHRDWLNGKEYKCKVSNKALPAPIEKTISKAKGQPREPQVYTLPPSRDELTKNQVSLTCLVKGFYPSDIAVEWESNGQPENNYKTTPPVLDSDGSFFLYSKLTVDKSRWQQGNVFSCSVLHEALKFHYTQKSLSLSPG
# light: DIQLTQSPSSLSASVGDRVTITCRASKSVDSYGNSFMHWYQQKPGKAPKLLIYLASNLESGVPSRFSGSGSGTDFTLTISSLQPEDFATYYCQQNNEDPRTFGGGTKVEIKRTVAAPSVFIFPPSDEQLKSGTASVVCLLNNFYPREAKVQWKVDNALQSGNSQESVTEQDSKDSTYSLSSTLTLSKADYEKHKVYACEVTHQGLSSPVTKSFNRGEC
# B5: AB_IL13_02_004_HL9 (antibody, human IgG1, kappa, L234A L235A)
# heavy: B4 heavy with F104A, N107G
# light: B4 light
# B6: AB_TL1A_02_004_HL9 (antibody, human IgG1, kappa)
# heavy: B1 heavy with Q318R, M435L, H440K, N441F
# light: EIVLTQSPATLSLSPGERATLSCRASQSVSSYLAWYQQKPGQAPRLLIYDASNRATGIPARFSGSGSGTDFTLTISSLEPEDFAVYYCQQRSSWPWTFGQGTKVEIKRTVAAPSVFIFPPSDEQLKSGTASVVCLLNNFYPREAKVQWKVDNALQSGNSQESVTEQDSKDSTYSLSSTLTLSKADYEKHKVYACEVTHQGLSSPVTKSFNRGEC
# notes: built from the name and the HLE mutation column
# B7: AB_TL1A_02_004_HL1 (antibody, human IgG1, kappa)
# heavy: B1 heavy with M259Y, S261T, T263E
# light: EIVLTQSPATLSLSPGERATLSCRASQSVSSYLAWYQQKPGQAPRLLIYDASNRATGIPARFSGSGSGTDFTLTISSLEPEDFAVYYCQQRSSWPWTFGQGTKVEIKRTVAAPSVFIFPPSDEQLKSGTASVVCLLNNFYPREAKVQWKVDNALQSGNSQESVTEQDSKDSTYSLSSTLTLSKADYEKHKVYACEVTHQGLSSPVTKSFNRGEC
# B8: RVT-3101 (antibody, human IgG1, kappa)
# heavy: B1 heavy with P53T, Q62R, K63M
# light: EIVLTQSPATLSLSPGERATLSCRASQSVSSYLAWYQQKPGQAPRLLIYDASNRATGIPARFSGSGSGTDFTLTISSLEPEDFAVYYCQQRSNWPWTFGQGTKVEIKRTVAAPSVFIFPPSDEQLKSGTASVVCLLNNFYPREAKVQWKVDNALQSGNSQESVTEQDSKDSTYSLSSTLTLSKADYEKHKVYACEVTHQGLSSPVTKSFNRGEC
# notes: Comparator anti-TL1A antibody, no HLE mutation; also called RVT-3101 (Roche); anti-TL1A comparator antibody
# B9: AB_IL13_TSLP_BsAb_ISTF_003 (bispecific antibody)
# chain 1: EVQLVQSGAEVKKPGSSVKVSCKASGYTFSNYLIEWVRQAPGQGLEWIGVIDPGVGDTNYNENFKGRATLTADKSTSTAYIELSSLRSEDTAVYYCAREDNPGTAFDYWGQGTTVTVSSASTKGPSVFPLAPSSKSTSGGTAALGCLVKDYFPEPVTVSWNSGALTSGVHTFPAVLQSSGLYSLSSVVTVPSSSLGTQTYICNVNHKPSNTKVDKRVEPKSCDKTHTCPPCPAPEAAGGPSVFLFPPKPKDTLMISRTPEVTCVVVDVSHEDPEVKFNWYVDGVEVHNAKTKPREEQYNSTYRVVSVLTVLHQDWLNGKEYKCKVSNKALPAPIEKTISKAKGQPREPQVYTLPPCREEMTKNQVSLWCLVKGFYPSDIAVEWESNGQPENNYKTTPPVLDSDGSFFLYSKLTVDKSRWQQGNVFSCSVLHEALHSHYTQKSLSLSPGK
# chain 2: SIVMTQTPLSLSVTPGQPASISCKASQSVSSDVTWYLQKPGQSPQLLIYYVSEHYTGVPDRFSGSGYGTDFTLKISRVEAEDVGVYYCQQHHRFPLTFGQGTKLEIKRTVAAPSVFIFPPSDEQLKSGTASVVCLLNNFYPREAKVQWKVDNALQSGNSQESVTEQDSKDSTYSLSSTLTLSKADYEKHKVYACEVTHQGLSSPVTKSFNRGEC
# chain 3: DIQLTQSPSSLSASVGDRVTITCRASKSVDSYGNSFMHWYQQKPGKAPKLLIYLASNLESGVPSRFSGSGSGTDFTLTISSLQPEDFATYYCQQNNEDPRTFGCGTKVEIKGGGGSGGGGSGGGGSGGGGSEVQLQESGPGLVKPSETLSLTCTVSGFSLNAYSVNWIRQPPGKCLEWLGMIWGDGKIVYNSALKSRLTISKDSSKNQVSLKLSSVTAADTAVYYCAGDGYYPYAMRNWGQGTTVTVSSEPKSSDKTHTCPPCPAPEAAGGPSVFLFPPKPKDTLMISRTPEVTCVVVDVSHEDPEVKFNWYVDGVEVHNAKTKPREEQYNSTYRVVSVLTVLHQDWLNGKEYKCKVSNKALPAPIEKTISKAKGQPREPQVCTLPPSREEMTKNQVSLSCAVKGFYPSDIAVEWESNGQPENNYKTTPPVLDSDGSFFLVSKLTVDKSRWQQGNVFSCSVLHEALHSHYTQKSLSLSPGK
# B10: AB_IL13_TSLP_BsAb_ISTF_003_HL9 (bispecific antibody, human IgG1, kappa, L234A L235A)
# heavy: B9 chain 1 with Q313R, H435K, S436F
# light: B9 chain 2
# scFv: B9 chain 3 with Q345R, H467K, S468F
# notes: Anti-TSLP Fab arm (HC + LC) and anti-IL13 scFv-Fc arm
# B11: AB_TL1A_02_004 with a C-terminal fused assay tag (prokaryotic in vitro translation, BLI of Example 1) (antibody, human IgG1, kappa)
# heavy: B1 heavy
# light: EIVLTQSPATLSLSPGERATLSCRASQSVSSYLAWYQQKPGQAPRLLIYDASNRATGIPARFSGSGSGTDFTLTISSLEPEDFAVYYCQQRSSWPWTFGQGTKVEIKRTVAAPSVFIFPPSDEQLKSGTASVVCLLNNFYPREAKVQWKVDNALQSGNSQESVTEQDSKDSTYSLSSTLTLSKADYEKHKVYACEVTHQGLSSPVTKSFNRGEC
# B12: AB_TL1A_02_004_HL4 (antibody, human IgG1, kappa)
# heavy: B1 heavy with H440K, N441F
# light: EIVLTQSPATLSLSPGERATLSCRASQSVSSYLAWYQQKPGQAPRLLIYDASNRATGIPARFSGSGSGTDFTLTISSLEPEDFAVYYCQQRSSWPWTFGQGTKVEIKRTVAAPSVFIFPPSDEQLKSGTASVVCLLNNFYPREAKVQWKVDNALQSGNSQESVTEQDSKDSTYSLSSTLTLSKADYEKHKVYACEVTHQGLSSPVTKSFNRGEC
# notes: as for B6
# B13: AB_TL1A_02_004_HL3 (antibody, human IgG1, kappa)
# heavy: B1 heavy with Q318R, M435L
# light: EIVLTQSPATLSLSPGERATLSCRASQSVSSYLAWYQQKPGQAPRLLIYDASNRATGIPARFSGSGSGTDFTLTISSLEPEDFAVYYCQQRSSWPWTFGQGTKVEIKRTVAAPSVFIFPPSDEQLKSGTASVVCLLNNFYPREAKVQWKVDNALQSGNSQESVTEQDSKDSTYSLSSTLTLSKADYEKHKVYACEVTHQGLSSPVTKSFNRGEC
# notes: as for B6
# Target: T1, TL1A (antigen of Examples 1 and 2, …)
# Assay: SPR, Biacore 8K, Protein A chip, antibody captured, antigen as analyte (second line)
# Procedure: (§1) To perform SPR analysis using the Biacore 8K and Protein A Chip, the chip was equilibrated with Running Buffer (1×HBS-EP+). A solution of the capture ligand (0.35 μg/mL antibody) was prepared in Running Buffer and injected over the chip surface at a flow rate of 10 μL/min for 30 sec until a stable capture level of about 210-470 RU was achieved, followed by washing to remove excess ligand. For sample analysis, analyte samples were prepared in Running Buffer and injected over the chip surface at a flow rate of 30 μL/min for association (180 seconds) and dissociation (3600 seconds). The chip surface was regenerated between sample injections using a regeneration buffer such as 10 mM Gly-HCl, pH 1.5 at a flow rate of 30 μL/min. Sensorgram data was analyzed to determine binding kinetics and affinity, and the steps were repeated for additional samples as needed. The chip was thoroughly washed and regenerated after the experiment, and stored according to manufacturer's recommendations. The data was analyzed using Biacore evaluation software to calculate kinetic parameters for observed interactions.
row,Kd [nM],Binder
1,< 0.0469,B1

# Target: T3, human FcRn (human, UniProt P55899 24-297; P61769 21-119)
# T3 construct: also called neonatal Fc receptor
# Assay: SPR, Biacore 8K, CM5 chip, antibody immobilised, human FcRn as analyte, pH 6.0
# Procedure: (§2) The 1×PBST running buffer was prepared at both pH 6.0 and pH 7.4. Kinetic measurements were obtained for association and dissociation times of 60 and 90 seconds, respectively, at a flow rate of 30 μL/min. The CM5 chips were regenerated with 1×PBS (pH 7.4). Kinetic parameters for the concentration series at both pHs were fit to a steady state affinity model and averaged using the Biacore Evaluation Software. Each concentration series was fit independently to obtain the average rates and binding affinities.
# SPR analysis was performed using a Bioacore 8K instrument and a CM5 with the antibody immobilized at 10 g/mL concentration, as above.
Fold Increase (FI) relative to Rituximab [fold],Kd,Binder
38.1,55.9 nM,B2
50.4,42.3 nM,B3
47.5,44.8 nM,B4
45.9,46.4 nM,B5
,2430 nM and 2240 nM,B1
,36 nM and 43.3 nM,B6
9.8,218 nM,B7
0.9,2440 nM and 2450 nM and 2460 nM,B8
20.7,103 nM,B9
48.5,43.9 nM,B10

# Target: T1, TL1A (antigen of Examples 1 and 2, …)
# Assay: BLI (Gator Bio), tagged antibody on Strep-Tactin XT probes, recombinant purified antigen as analyte, 25 C
# Procedure: Materials utilized in the assay included K Buffer (Assay Buffer) containing 0.02% BSA and 0.002% Tween-20 in PBS, pH 7.4, sourced from Gator Bio, Regen Buffer comprising 10 mM Glycine, pH 1.7, from Gator Bio, and Strep-Tactin XT probes. The protocol involved preparing samples of interest by diluting them in Assay Buffer, then performing analyte dilution series by diluting recombinant purified antigen into assay buffer to the correct target concentration. Samples were loaded into a sample plate and positioned in the plate positions on the BLI device. The assay was conducted in a temperature-controlled environment at 25° C. with shaking conditions set to 1000 rpm, recording data at a frequency of 5 Hz. Protocol cycles included Initial Baseline, Sample Loading, Baseline, Second Baseline, Association, and Dissociation steps. Probes were regenerated after each cycle following a recommended protocol of regeneration and neutralization. This cycle was repeated for every subsequent analyte concentration, typically ranging from 4 to 6 concentrations.
Kd,kon [M⁻¹ s⁻¹],Binder
5.17 nM and 5 nM,380000,B11

# Target: T2, biotinylated recombinant human TL1A
# Assay: competition ELISA, blocks biotinylated human TL1A (3.5 nM) binding to coated DR3/Fc
# Procedure: (§3) Plates were coated with 4 g/mL of DR3/Fc or 1 g/mL of DcR3/Fc by adding 100 μL per well, and were incubated overnight at 4° C. 1×PBST was added at 200 μL per well, and after a 10-second incubation, the liquid was poured out and the plate was pat dried on blotting paper. This process was repeated three times. The plates were then blocked with 2% BSA in 1×PBST at 200 μL per well for 2 hours at room temperature (RT), followed by a similar washing step. […] This mixture was then added to the DR3/Fc or DcR3/Fc coated wells and incubated at RT for 1 hour. Further washing steps were performed, followed by the addition of a secondary antibody at 100 μL per well, which was incubated at RT for 0.5 hours. Additional washing steps were conducted, and TMB was added to each well at 100 μL and incubated at RT for 15 minutes. The reaction was stopped with 100 μL of 2M HCl stop solution per well, and the plates were read with a microplate reader at 450 nm. For buffer preparation, coating buffer consisted of 1×PBS, washing buffer was 0.05% tween-20 in 1×PBS, blocking buffer was 1% BSA in 1×PBST, and both test antibody dilution buffer and secondary antibody dilution buffer were prepared using blocking buffer.
row,IC50 [nM],Binder
1,0.92 to 1.01,B1

# Target: T3, human FcRn
# Assay: SPR, Biacore 8K, CM5 chip, antibody immobilised, human FcRn as analyte, pH 6.0, steady-state affinity fit
# Procedure: as §2
Kd,Fold Increase (FI) relative to RVT-3101 [fold],Binder
2430 nM and 2240 nM,,B1
36 nM and 43.3 nM,,B6
132 nM,18.5,B12
461 nM,5.3,B13
2440 nM and 2450 nM and 2460 nM,1,B8

# Target: T1, TL1A (antigen of Examples 1 and 2, …)
# Assay: SPR, Biacore 8K, Protein A chip, antibody captured, antigen as analyte
# Procedure: as §1
row,Kd [nM],Binder
1,< 0.0256,B1

# Target: T2, biotinylated recombinant human TL1A
# Assay: competition ELISA, blocks biotinylated human TL1A (3.5 nM) binding to coated DcR3/Fc
# Procedure: as §3
row,IC50 [nM],Binder
1,1.2 to 1.51,B1
